Data from patent US20240317847A1 (Bayer, published 2024).

T1: murine IL-11 (mouse, UniProt P47873 22-199)
T1 construct: Invigate, e.g. lot #C210819-09; biotinylated where coated in the ELISA; also called mIL-11; mIL11
T1 sequence: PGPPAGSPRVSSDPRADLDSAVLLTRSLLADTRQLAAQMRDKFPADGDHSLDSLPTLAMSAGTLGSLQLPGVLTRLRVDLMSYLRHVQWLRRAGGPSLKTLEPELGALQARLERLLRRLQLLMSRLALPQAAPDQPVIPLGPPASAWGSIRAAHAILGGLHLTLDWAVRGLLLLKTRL

T2: rat IL-11 (rat, UniProt Q99MF5 22-199)
T2 construct: Invigate, e.g. lot #C301019-19; also called rIL11
T2 sequence: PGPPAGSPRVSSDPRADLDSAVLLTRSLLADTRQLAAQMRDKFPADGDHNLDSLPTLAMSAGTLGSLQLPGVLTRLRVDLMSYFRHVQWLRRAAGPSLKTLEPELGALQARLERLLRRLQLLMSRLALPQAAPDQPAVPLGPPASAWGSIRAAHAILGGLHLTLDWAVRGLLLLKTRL

T3: human IL-11 (human, UniProt P20809 22-199)
T3 construct: Invigate, e.g. lot #C121021-19; biotinylated where coated in the ELISA; also called hIL-11; hIL11
T3 sequence: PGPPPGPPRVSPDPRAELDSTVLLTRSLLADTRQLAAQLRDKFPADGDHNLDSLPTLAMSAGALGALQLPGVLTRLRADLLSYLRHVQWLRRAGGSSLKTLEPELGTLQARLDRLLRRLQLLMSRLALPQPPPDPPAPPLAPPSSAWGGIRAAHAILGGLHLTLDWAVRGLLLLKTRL

T4: cynomolgus IL-11 (cynomolgus, UniProt P20808 22-199)
T4 construct: Invigate, lot #C290621-19; also called cIL11; cynoL-11
T4 sequence: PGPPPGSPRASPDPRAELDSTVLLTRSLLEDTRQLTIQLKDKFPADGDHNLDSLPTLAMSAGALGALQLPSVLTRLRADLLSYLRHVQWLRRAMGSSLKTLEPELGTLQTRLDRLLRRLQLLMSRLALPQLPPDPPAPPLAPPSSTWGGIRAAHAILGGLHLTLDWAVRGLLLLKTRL


Key:
murine IL-11 [1] = molecular target: T1, murine IL-11; assay: SPR 37 C, antibody captured, IL-11 as analyte
Method: (§1) To assess the binding kinetics and affinity of anti-IL-11 antibodies as well as their species cross-reactivity profile, binding assays were conducted using surface plasmon resonance (SPR). Binding assays were performed on a Biacore T200 instrument or on a Biacore 8K+ instrument (Cytiva) at 37° C. using assay buffer HBS EP+, 300 mM NaCl, 1 mg/ml BSA, 0.05% NaN3. Antibodies were captured either via anti-human Fc IgGs (“Human antibody capture kit”, Order No. BR100839, Cytiva) or via anti-mouse Fc IgGs (“Mouse antibody capture kit, Order No. BR100383, Cytiva) covalently amine coupled to a Series S CM5 sensor chip (Cytiva) depending on the isotype. The amine coupling was carried out according to the manufacturer's instructions using 1-ethyl-3-(3-dimethylaminopropyl) carbodiimide hydrochloride (EDC), N-hydroxysuccinimide (NHS) and ethanolamine HCl, pH 8.5 (“Amine Coupling Kit” BR-1000-50, Cytiva.). Human, mouse, cynomolgus or rat IL-11 was used as analyte at several dilutions within the concentration range from 0.05-200 nM. For binding assays with only one concentration 200 nM IL-11 was used. The sensor surface was regenerated with glycine pH 1.7 after each antigen injection. Obtained sensorgrams were double referenced (subtraction of reference flow cell signal and buffer injection) and were fitted to a 1:1 Langmuir binding model to derive kinetic data using the Biacore T200 Evaluation software or the Biacore Insight software. If no value is reported, there was either no binding or very low binding and multiphasic binding behavior. Values below 1E-12 were considered to be below the dynamic range of the instrument and set to <1E-12.

rat IL-11 [2] = molecular target: T2, rat IL-11; assay: SPR 37 C, antibody captured, IL-11 as analyte
Method: as §1

human IL-11 [3] = molecular target: T3, human IL-11; assay: SPR 37 C, antibody captured, IL-11 as analyte
Method: as §1

cynomolgus IL-11 [4] = molecular target: T4, cynomolgus IL-11; assay: SPR 37 C, antibody captured, IL-11 as analyte
Method: as §1

murine IL-11 [5] = molecular target: T1, murine IL-11; assay: cell-based or functional assay
rat IL-11 [6] = molecular target: T2, rat IL-11; assay: cell-based or functional assay
human IL-11 [7] = molecular target: T3, human IL-11; assay: cell-based or functional assay
cynomolgus IL-11 [8] = molecular target: T4, cynomolgus IL-11; assay: cell-based or functional assay
murine IL-11 [9] = molecular target: T1, murine IL-11; assay: Di-complex ELISA, competitor canine IL11RA-Fc on coated IL-11;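 note: signal drop relative to signal at lowest antibody concentration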
Method: (§2) The assay is performed using streptavidin coated microtiter plates (Greiner bio-one, #781997). In a first step, 10 nM biotinylated mouse IL-11 (Invigate, Germany, e.g., lot #C210819-09) or human IL-11 (Invigate, Germany, e.g., lot #C121021-19) is coated in 25 μl PBS on the plate at 4° C. overnight. Next day, the plate is washed three times with 50 μl PBST and then blocked with 50 μl SmartBlock (Candor, #113125) for one hour at room temperature (RT). After additional three washes with PBST, 25 μl of a mixture of the murine anti IL-11 antibody and recombinant canine IL11RA-Fc fusion protein (Sino Biological, #70078-D02H) in PBS-T, 10% Smartblock are added simultaneously to the plate and incubated for one hour at RT. […] After three additional washes with PBS-T, 25 μl anti-human-POD (Sigma, #A0170) in PBS-T, 10% Smartblock is added and incubated for 1 hour at RT. After a final three washes with PBS-T, 25 μl AmplexRed (Fisher Scientific, A12222), 1/1000 in PBS, 0,003% H₂O₂, is added as substrate and incubated for 15 min at RT in the dark. Then, the fluorescence is measured with a plate reader at 535/595 nm. Signals from dose responses were used to calculate IC50 values (GraphPad Prism). Efficacy was calculated as [(signal measured at lowest antibody concentration−signal measured at the highest antibody concentration)×100] divided by (signal measured at lowest antibody concentration−signal measured in the absence of IL11Ra).
(§3) IgG converted antibodies were subjected to the experimental assay procedure described in Example 18.

human IL-11 [10] = molecular target: T3, human IL-11; assay: as above
Method: as §2, §3

| Binder | Kd (murine IL-11 [1]) | Kd (rat IL-11 [2]) | Kd (human IL-11 [3]) | binding result (cynomolgus IL-11 [4]) | RGA Efficacy (%) (murine IL-11 [5]) | RGA IC50 (murine IL-11 [5]) | RGA Efficacy (%) (rat IL-11 [6]) | RGA IC50 (rat IL-11 [6]) | RGA Efficacy (%) (human IL-11 [7]) | RGA IC50 (human IL-11 [7]) | RGA Efficacy (%) (cynomolgus IL-11 [8]) | Efficacy (%) (murine IL-11 [9]) | Efficacy (%) (human IL-11 [10]) | Kd (cynomolgus IL-11 [4]) |
| --- | --- | --- | --- | --- | --- | --- | --- | --- | --- | --- | --- | --- | --- | --- |
| TPP-29520 (antibody, mouse IgG1, mIgG1, Lambda) heavy: QVQLVESGGGVVQPGRSLRLSCAASGFTFSHYDMHWVRQAPGKGLEWVAVISYSGSVKFYADSVKGRFTISRDNSKNTLYLQMNSLRAEDTAVYYCARTPGSHFDYWGQGTLVTVSSAKTTPPSVYPLAPGSAAQTNSMVTLGCLVKGYFPEPVTVTWNSGSLSSGVHTFPAVLQSDLYTLSSSVTVPSSTWPSETVTCNVAHPASSTKVDKKIVPRDCGCKPCICTVPEVSSVFIFPPKPKDVLTITLTPKVTCVVVDISKDDPEVQFSWFVDDVEVHTAQTQPREEQFNSTFRSVSELPIMHQDWLNGKEFKCRVNSAAFPAPIEKTISKTKGRPKAPQVYTIPPPKEQMAKDKVSLTCMITDFFPEDITVEWQWNGQPAENYKNTQPIMDTDGSYFVYSKLNVQKSNWEAGNTFTCSVLHEGLHNHHTEKSLSHSPGK light: QSVLTQPPSASGTPGQRVTISCSGSSSNIGSNYVNWYQQLPGTAPKLLIYYDDLRPSGVPDRFSGSKSGTSASLAISGLRSEDEADYYCSAWDDSLSGVVFGGGTKLTVLGQPKSSPSVTLFPPSSEELETNKATLVCTITDFYPGVVTVDWKVDGTPVTQGMETTQPSKQSNNKYMASSYLTLTARAWERHSSYSCQVTHEGHTVEKSLSRADCS | 0.11 nM | 0.29 nM | 0.09 nM | no binding (tested: IL-11 up to 200 nM) | 100% | 0.91 nM | 101% | 1.3 nM | 99.7% | 1.7 nM | 58.6% | 1.1% | 0.3% |  |
| TPP-29521 (antibody, mouse IgG1, mIgG1, Lambda) heavy: QVQLVESGGGVVQPGRSLRLSCAASGFTFSHYDMHWVRQAPGKGLEWVAVISYEGSNKFYADSVKGRFTISRDNSKNTLYLQMNSLRAEDTAVYYCARTPGFHFDYWGQGTLVTVSSAKTTPPSVYPLAPGSAAQTNSMVTLGCLVKGYFPEPVTVTWNSGSLSSGVHTFPAVLQSDLYTLSSSVTVPSSTWPSETVTCNVAHPASSTKVDKKIVPRDCGCKPCICTVPEVSSVFIFPPKPKDVLTITLTPKVTCVVVDISKDDPEVQFSWFVDDVEVHTAQTQPREEQFNSTFRSVSELPIMHQDWLNGKEFKCRVNSAAFPAPIEKTISKTKGRPKAPQVYTIPPPKEQMAKDKVSLTCMITDFFPEDITVEWQWNGQPAENYKNTQPIMDTDGSYFVYSKLNVQKSNWEAGNTFTCSVLHEGLHNHHTEKSLSHSPGK light: QSVLTQPPSASGTPGQRVTISCSGSSSNIGSNYVSWYQQLPGTAPKLLIYYDDLRPSGVPDRFSGSKSGTSASLAISGLRSEDEADYYCSAWDDSLSGVVFGGGTKLTVLGQPKSSPSVTLFPPSSEELETNKATLVCTITDFYPGVVTVDWKVDGTPVTQGMETTQPSKQSNNKYMASSYLTLTARAWERHSSYSCQVTHEGHTVEKSLSRADCS | 0.098 nM | 2.1 nM | 0.18 nM | no binding (tested: IL-11 up to 200 nM) | 103% | 0.76 nM | 98.9% | 1.8 nM | 99.2% | 1.9 nM | 60% | 12.1% | 1.7% |  |
| TPP-29522 (antibody, mouse IgG1, mIgG1, Lambda) heavy: QVQLVESGGGVVQPGRSLRLSCAASGFTFSHYDMHWVRQAPGKGLEWVAVISYEGSNKFYADSVKGRFTISRDNSKNTLYLQMNSLRAEDTAVYYCARTPGFHFDYWGQGTLVTVSSAKTTPPSVYPLAPGSAAQTNSMVTLGCLVKGYFPEPVTVTWNSGSLSSGVHTFPAVLQSDLYTLSSSVTVPSSTWPSETVTCNVAHPASSTKVDKKIVPRDCGCKPCICTVPEVSSVFIFPPKPKDVLTITLTPKVTCVVVDISKDDPEVQFSWFVDDVEVHTAQTQPREEQFNSTFRSVSELPIMHQDWLNGKEFKCRVNSAAFPAPIEKTISKTKGRPKAPQVYTIPPPKEQMAKDKVSLTCMITDFFPEDITVEWQWNGQPAENYKNTQPIMDTDGSYFVYSKLNVQKSNWEAGNTFTCSVLHEGLHNHHTEKSLSHSPGK light: QSVLTQPPSASGTPGQRVTISCSGSSSNIGSNYVNWYQQLPGTAPKLLIYYDDLRPSGVPDRFSGSKSGTSASLAISGLRSEDEADYYCSAWDDSLSGVVFGGGTKLTVLGQPKSSPSVTLFPPSSEELETNKATLVCTITDFYPGVVTVDWKVDGTPVTQGMETTQPSKQSNNKYMASSYLTLTARAWERHSSYSCQVTHEGHTVEKSLSRADCS | 0.029 nM | 0.34 nM | 0.034 nM |  | 101% | 0.78 nM | 101% | 1.6 nM | 98.6% | 1.6 nM | 52% | 3.6% | 0% | 24 nM |
